Measurements from paper PMC8755526.
One block for each substance: values may come before it.

Tests used:
[1] = target: PLK1 Polo-Box domain (Flag- or Myc-tagged) (human); experiment: co-IP; lysates of cells co-expressing differently tagged PLK1 PBD incubated with increasing amounts of purified GST-Bora, then co-IP
[2] = target: PLK1-T210E fused to CFP, YFP or mTurquoise 2 (human) (UniProt P53350); experiment: FRET or BRET; FRET by confocal microscopy of fixed HEK293T cells co-transfected with YFP and mTurquoise constructs; 'FRET and co-localization analyzer' ImageJ plug-in
[3] = target: endogenous PLK1 of HeLa-PLK1–3xMyc cells (human (endogenous in HeLa)) (UniProt P53350); experiment: SEC; lysate of HeLa-PLK1–3xMyc cells synchronized in G2 with the CDK1 inhibitor RO3306; Superose 3.2/300, 50 mM Tris pH 7.5, 150 mM NaCl, 20 mM CHAPS, 1 mM DTT, 4 °C; fractions blotted
[4] = target: full-length, wild-type PLK1 (Flag-, Myc- or V5-tagged) (human) (UniProt P53350); experiment: cross-linking; BS3 (20:1 crosslinker-protein) added to lysates of HEK293T cells for 30 min, quenched; IPs with anti-V5 and anti-Myc; SDS-PAGE and western blot with PLK1- and Bora-specific antibodies

increase of co-precipitated PBD with purified GST-Bora added (lane 2) against none (lane 1) [1]: 60%
Substance: PLK1 Polo-Box domain (Flag- or Myc-tagged) (domain or fragment)

fold decrease of FRET emission against WT PLK1 [2]: 6 to 8 fold
Substance: PLK1-T210E fused to CFP, YFP or mTurquoise 2 (from UniProt P53350 1-603) (enzyme)

stoichiometry N [3]: 2
Substance: endogenous PLK1 of HeLa-PLK1–3xMyc cells (from UniProt P53350 1-603) (enzyme)

stoichiometry N [4]: 2
Substance: full-length, wild-type PLK1 (Flag-, Myc- or V5-tagged) (from UniProt P53350 1-603) (enzyme)
